The experiment has as its target EGFP-N-Talin1-C-mCherry (UniProt P26039). As to the kind of experiment: single-molecule photobleaching step counting and point spread function fit (TIRF microscopy); living CV1 cells with low expression of EGFP-Talin1-mCherry; EGFP spots more than 500 nm from other EGFPs; bleaching steps counted and the spot shape fitted to a single or a dimeric PSF. Particulars: remark: other sources report otherwise.

As for EGFP-N-Talin1-C-mCherry, P26039 1-2541, the stoichiometry N turned out to be 2.

One may read the stoichiometry N as the number of molecules, sites or subunits per partner or assembly.

The values above are taken from paper PMC3243729.
